Values belong to the binder of their own block, whether it stands above or below them.
Molecular target: T1, β3 integrin mutant in which the identical region of the β1 integrin was substituted for the 8 amino acid … (UniProt P05106 27-788)
T1 construct: whole, on cells; also called mutant protein; β3 mutant
T1 sequence (looked up): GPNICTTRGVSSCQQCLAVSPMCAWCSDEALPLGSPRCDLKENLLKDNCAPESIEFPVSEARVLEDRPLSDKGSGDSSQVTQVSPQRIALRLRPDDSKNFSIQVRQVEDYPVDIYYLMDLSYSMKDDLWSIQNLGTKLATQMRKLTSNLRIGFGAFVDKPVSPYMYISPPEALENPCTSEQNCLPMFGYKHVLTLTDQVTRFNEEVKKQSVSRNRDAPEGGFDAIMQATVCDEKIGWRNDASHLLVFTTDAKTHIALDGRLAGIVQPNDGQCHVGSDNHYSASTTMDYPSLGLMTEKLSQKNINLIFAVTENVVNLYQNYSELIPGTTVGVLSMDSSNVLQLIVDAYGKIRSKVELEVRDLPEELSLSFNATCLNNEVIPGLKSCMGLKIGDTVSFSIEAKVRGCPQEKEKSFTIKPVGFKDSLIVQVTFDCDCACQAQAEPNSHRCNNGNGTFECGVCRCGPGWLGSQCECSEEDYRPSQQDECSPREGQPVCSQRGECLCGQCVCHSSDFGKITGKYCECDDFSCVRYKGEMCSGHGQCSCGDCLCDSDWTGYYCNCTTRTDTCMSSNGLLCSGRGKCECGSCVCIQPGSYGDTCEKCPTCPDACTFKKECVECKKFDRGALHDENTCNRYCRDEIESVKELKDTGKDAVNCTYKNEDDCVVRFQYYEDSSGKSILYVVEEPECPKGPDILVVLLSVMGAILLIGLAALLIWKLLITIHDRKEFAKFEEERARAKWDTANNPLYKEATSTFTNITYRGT
Assay: binding assay on CHO cells expressing the mutant β3

B1: osteopontin (ligand)
chain: not shown
binding result: no binding

B2: connective tissue growth factor (ligand, UniProt P29279 27-349, looked up)
chain: QNCSGPCRCPDEPAPRCPAGVSLVLDGCGCCRVCAKQLGELCTERDPCDPHKGLFCHFGSPANRKIGVCTAKDGAPCIFGGTVYRSGESFQSSCKYQCTCLDGAVGCMPLCSMDVRLPSPDCPFPRRVKLPGKCCEEWVCDEPKDQTVVGPALAAYRLEDTFGPDPTMIRANCLVQTTEWSACSKTCGMGISTRVTNDNASCRLEKQSRLCMVRPCEADLEENIKKGKKCIRTPKISKPIKFELSGCTSMKTYRAKFCGVCTDGRCCTPHRTTTLPVEFKCPDGEVMKKNMMFIKTCACHYNCPGDNDIFESLYYRKMYGDMA
binding result: no binding

Other lines, results leading:

binding result: no binding
B3: vitronectin (ligand, UniProt P04004 20-478, looked up)
chain: DQESCKGRCTEGFNVDKKCQCDELCSYYQSCCTDYTAECKPQVTRGDVFTMPEDEYTVYDDGEEKNNATVHEQVGGPSLTSDLQAQSKGNPEQTPVLKPEEEAPAPEVGASKPEGIDSRPETLHPGRPQPPAEEELCSGKPFDAFTDLKNGSLFAFRGQYCYELDEKAVRPGYPKLIRDVWGIEGPIDAAFTRINCQGKTYLFKGSQYWRFEDGVLDPDYPRNISDGFDGIPDNVDAALALPAHSYSGRERVYFFKGKQYWEYQFQHQPSQEECEGSSLSAVFEHFAMMQRDSWEDIFELLFWGRTSAGTRQPQFISRDWHGVPGQVDAAMAGRIYISGMAPRPSLAKKQRFRHRNRKGYRSQRGHSRGRNQNSRRPSRATWLSLFSSEESNLGANNYDDYRMDWLVPATCEPIQSVFFFSGDKYYRVNLRTRRVDTVDPPYPRSIAQYWLGCPAPGHL

binding result: no binding
B4: heparin binding epidermal growth factor (ligand, UniProt Q99075 63-148, looked up)
chain: DLQEADLDLLRVTLSSKPQALATPNKEEHGKRKKKGKGLGKKRDPCLRKYKDFCIHGECKYVKELRAPSCICHPGYHGERCHGLSL
